Here are results for one substance from paper PMC6553764.

This experiment has as its target FSFG6 (a segment of Nsp1FG that contains six repeats of the FxFG-type region) (S. cerevisiae). Description: SPR; XPR36 (BioRad), GLC chip; FG construct conjugated by its C-terminal cysteine to maleimide surface, quenched with beta-mercaptoethanol; analyte in TBT-PVP at 100 μl/min, association 15-120 s, dissociation 10 min, 25°C. (SPR reads the build-up and loss of mass on a sensor chip optically.)

In the case of “Kap95 (without the GST domain) (from UniProt Q06142 1-861) (natural protein)”, the fastest association rate estimated from the kinetic model fits is 3e+06 M⁻¹ s⁻¹.
